Reference: the supplement of paper PMC9876800

Test system: peptide library, one residue held at a place counted from the S/T acceptor
Assay: relative phosphorylation of the sub-library (ratio to the mean residue at this position); human; higher = residue favoured
Conditions: W fixed; at +4
Method in brief: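 Human or orthologue kinase constructs, purified and recombinant, were incubated under kinase-specific conditions in 384-well plates with biotinylated degenerate peptide sub-libraries. Each sub-library fixed one residue at one position around a central Ser/Thr. Incubations lasted 90 min with peptides at 50 μM and 50 μM ATP spiked with γ-32P-ATP, after which spots on streptavidin membranes were phosphorimaged and quantified by densitometry. Relative sub-library phosphorylation is a ratio to the mean residue at that position.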

NEK4, construct: Full length, sequence (P51957 whole entry, looked up): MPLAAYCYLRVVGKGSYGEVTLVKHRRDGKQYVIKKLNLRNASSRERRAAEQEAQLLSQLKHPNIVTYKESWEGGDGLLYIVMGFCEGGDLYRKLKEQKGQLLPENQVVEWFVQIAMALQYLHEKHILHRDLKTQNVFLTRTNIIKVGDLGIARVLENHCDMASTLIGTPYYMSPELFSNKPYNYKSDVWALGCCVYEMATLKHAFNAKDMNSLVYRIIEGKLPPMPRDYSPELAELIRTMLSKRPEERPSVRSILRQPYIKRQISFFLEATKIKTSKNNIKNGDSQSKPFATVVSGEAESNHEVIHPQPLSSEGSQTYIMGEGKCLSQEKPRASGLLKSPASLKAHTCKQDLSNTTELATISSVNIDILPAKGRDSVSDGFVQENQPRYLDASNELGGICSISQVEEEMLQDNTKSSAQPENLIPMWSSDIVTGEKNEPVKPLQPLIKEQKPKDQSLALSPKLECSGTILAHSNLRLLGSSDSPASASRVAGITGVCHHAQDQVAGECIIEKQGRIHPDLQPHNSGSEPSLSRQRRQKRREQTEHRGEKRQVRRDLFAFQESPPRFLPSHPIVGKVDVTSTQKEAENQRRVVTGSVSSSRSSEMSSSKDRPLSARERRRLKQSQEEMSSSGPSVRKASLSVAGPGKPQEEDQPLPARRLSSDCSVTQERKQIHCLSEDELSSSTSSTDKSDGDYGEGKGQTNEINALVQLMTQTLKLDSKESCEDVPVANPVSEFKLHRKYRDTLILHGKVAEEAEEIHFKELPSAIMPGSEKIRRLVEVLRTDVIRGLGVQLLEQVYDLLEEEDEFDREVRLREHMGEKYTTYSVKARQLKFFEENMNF
SGK3, construct: aa119-end, sequence (Q96BR1 119-496, looked up): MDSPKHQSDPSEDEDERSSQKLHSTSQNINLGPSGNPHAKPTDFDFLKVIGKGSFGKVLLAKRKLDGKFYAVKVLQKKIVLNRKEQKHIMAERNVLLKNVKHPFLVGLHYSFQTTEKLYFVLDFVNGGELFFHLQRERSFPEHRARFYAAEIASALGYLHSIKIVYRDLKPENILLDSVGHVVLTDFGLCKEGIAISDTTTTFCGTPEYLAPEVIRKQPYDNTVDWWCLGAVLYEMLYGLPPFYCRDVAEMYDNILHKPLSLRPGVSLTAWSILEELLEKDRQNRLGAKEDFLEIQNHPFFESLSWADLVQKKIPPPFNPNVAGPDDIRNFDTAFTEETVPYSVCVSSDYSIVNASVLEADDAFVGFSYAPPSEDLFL
NEK11, construct: Full length, sequence (Q8NG66 whole entry, looked up): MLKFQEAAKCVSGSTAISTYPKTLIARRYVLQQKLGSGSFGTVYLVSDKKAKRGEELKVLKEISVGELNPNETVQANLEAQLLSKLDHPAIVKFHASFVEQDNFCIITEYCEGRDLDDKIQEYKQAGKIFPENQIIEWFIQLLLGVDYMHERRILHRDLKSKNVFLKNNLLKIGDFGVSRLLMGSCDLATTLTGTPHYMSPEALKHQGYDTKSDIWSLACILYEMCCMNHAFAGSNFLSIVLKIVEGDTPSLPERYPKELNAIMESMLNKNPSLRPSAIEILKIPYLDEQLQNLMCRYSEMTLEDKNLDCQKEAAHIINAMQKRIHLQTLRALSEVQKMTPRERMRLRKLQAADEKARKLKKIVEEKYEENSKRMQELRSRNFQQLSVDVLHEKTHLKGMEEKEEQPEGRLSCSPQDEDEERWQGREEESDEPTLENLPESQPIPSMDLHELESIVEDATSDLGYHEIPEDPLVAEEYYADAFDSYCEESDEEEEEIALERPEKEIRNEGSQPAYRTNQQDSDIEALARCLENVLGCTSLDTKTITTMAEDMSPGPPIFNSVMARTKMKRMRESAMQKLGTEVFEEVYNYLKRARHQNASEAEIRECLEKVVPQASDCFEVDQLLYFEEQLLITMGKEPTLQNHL
TP53RK, construct: Full length, sequence (Q96S44 whole entry, looked up): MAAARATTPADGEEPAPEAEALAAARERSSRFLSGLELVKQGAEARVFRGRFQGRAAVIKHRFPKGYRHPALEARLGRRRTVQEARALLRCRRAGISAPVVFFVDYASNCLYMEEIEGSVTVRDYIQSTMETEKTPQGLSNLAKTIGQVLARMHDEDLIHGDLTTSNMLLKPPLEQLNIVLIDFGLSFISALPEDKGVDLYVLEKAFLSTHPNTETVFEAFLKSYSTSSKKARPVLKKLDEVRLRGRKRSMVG
AURKB, construct: Full length, sequence (Q96GD4 whole entry, looked up): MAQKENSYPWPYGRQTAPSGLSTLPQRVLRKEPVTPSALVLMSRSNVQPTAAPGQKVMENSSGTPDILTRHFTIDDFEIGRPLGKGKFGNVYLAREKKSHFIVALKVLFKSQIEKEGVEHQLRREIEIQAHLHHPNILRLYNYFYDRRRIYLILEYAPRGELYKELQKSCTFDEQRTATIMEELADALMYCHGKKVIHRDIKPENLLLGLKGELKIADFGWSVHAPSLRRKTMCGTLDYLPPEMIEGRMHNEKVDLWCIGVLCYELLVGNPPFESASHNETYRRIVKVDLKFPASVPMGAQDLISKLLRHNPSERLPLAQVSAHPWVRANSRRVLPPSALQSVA
GRK7, construct: Full length, sequence (Q8WTQ7 whole entry, looked up): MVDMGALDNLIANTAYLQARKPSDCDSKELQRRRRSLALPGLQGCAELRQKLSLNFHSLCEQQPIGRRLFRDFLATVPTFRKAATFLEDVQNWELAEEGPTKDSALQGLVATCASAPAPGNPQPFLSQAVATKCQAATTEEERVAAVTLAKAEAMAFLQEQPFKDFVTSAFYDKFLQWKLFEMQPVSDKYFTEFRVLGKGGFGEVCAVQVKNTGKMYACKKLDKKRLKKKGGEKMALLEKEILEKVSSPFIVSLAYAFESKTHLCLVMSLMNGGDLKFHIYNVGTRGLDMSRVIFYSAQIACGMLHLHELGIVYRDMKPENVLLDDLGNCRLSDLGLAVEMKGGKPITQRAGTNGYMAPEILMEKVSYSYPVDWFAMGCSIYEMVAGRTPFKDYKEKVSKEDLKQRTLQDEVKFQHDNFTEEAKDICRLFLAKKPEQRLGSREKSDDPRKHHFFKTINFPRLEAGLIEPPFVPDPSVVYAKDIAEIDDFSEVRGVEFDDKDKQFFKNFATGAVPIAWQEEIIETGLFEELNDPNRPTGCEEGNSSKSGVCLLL
GRK2, construct: Full length, sequence (P25098 whole entry, looked up): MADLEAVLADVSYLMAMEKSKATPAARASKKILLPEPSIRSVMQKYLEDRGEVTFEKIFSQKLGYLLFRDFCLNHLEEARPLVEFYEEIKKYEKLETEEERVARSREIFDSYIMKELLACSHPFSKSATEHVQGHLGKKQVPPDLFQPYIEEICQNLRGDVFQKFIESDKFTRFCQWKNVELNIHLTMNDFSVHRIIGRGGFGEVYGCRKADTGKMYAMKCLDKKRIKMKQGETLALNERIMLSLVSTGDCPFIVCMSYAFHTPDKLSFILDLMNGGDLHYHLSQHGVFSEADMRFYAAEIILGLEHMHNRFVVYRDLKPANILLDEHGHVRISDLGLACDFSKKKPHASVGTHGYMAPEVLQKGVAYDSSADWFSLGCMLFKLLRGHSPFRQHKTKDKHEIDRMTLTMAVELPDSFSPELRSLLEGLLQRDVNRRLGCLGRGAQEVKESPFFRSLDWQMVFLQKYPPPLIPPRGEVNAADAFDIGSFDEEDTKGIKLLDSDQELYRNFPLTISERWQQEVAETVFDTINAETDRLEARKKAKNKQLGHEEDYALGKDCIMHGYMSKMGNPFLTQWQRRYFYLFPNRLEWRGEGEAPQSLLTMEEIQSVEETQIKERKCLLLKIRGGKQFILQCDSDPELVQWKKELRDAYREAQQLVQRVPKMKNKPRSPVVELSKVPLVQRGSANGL

“GRK7, construct: Full length (from UniProt Q8WTQ7)” showed a relative phosphorylation of 0.758.

Same assay, conditions: W fixed; at -1

In order of falling relative phosphorylation:
1. NEK4, construct: Full length (from UniProt P51957)  0.925
2. TP53RK, construct: Full length (from UniProt Q96S44)  0.907
3. GRK2, construct: Full length (from UniProt P25098)  0.876
4. NEK11, construct: Full length (from UniProt Q8NG66)  0.764
5. SGK3, construct: aa119-end (from UniProt Q96BR1)  0.633
6. AURKB, construct: Full length (from UniProt Q96GD4)  0.605
7. GRK7, construct: Full length (from UniProt Q8WTQ7)  0.513
8. MKNK1, construct: Full length (D165-205) (from UniProt Q9BUB5)  0.414

Same assay, conditions: W fixed; at -2

In order of falling relative phosphorylation:
1. NEK4, construct: Full length (from UniProt P51957)  1.18
2. NEK11, construct: Full length (from UniProt Q8NG66)  1.1
3. TP53RK, construct: Full length (from UniProt Q96S44)  0.867
4. GRK2, construct: Full length (from UniProt P25098)  0.832
5. MKNK1, construct: Full length (D165-205) (from UniProt Q9BUB5)  0.685
6. GRK7, construct: Full length (from UniProt Q8WTQ7)  0.614
7. SGK3, construct: aa119-end (from UniProt Q96BR1)  0.437
8. AURKB, construct: Full length (from UniProt Q96GD4)  0.287

Same assay, conditions: W fixed; at -3

In order of falling relative phosphorylation:
1. TP53RK, construct: Full length (from UniProt Q96S44)  1.14
2. NEK4, construct: Full length (from UniProt P51957)  1.02
3. NEK11, construct: Full length (from UniProt Q8NG66)  0.979
4. GRK2, construct: Full length (from UniProt P25098)  0.789
5. AURKB, construct: Full length (from UniProt Q96GD4)  0.735
6. GRK7, construct: Full length (from UniProt Q8WTQ7)  0.554
7. MKNK1, construct: Full length (D165-205) (from UniProt Q9BUB5)  0.549
8. SGK3, construct: aa119-end (from UniProt Q96BR1)  0.409

Same assay, conditions: W fixed; at -4

In order of rising relative phosphorylation:
1. SGK3, construct: aa119-end (from UniProt Q96BR1)  0.672
2. GRK7, construct: Full length (from UniProt Q8WTQ7)  0.702
3. AURKB, construct: Full length (from UniProt Q96GD4)  0.855
4. MKNK1, construct: Full length (D165-205) (from UniProt Q9BUB5)  0.894
5. GRK2, construct: Full length (from UniProt P25098)  1.06
6. TP53RK, construct: Full length (from UniProt Q96S44)  1.07
7. NEK11, construct: Full length (from UniProt Q8NG66)  1.31
8. NEK4, construct: Full length (from UniProt P51957)  1.31

Same assay, conditions: W fixed; at -5

In order of falling relative phosphorylation:
1. NEK11, construct: Full length (from UniProt Q8NG66)  1.21
2. GRK2, construct: Full length (from UniProt P25098)  1.19
3. TP53RK, construct: Full length (from UniProt Q96S44)  1.16
4. NEK4, construct: Full length (from UniProt P51957)  1.11
5. AURKB, construct: Full length (from UniProt Q96GD4)  0.931
6. GRK7, construct: Full length (from UniProt Q8WTQ7)  0.858
7. MKNK1, construct: Full length (D165-205) (from UniProt Q9BUB5)  0.832
8. SGK3, construct: aa119-end (from UniProt Q96BR1)  0.753

Same assay, conditions: Y fixed; at +1

In order of falling relative phosphorylation:
1. NEK11, construct: Full length (from UniProt Q8NG66)  1.62
2. MKNK1, construct: Full length (D165-205) (from UniProt Q9BUB5)  1.49
3. GRK7, construct: Full length (from UniProt Q8WTQ7)  1.25
4. TP53RK, construct: Full length (from UniProt Q96S44)  1.05
5. GRK2, construct: Full length (from UniProt P25098)  1.01
6. NEK4, construct: Full length (from UniProt P51957)  0.937
7. AURKB, construct: Full length (from UniProt Q96GD4)  0.922
8. SGK3, construct: aa119-end (from UniProt Q96BR1)  0.857

Same assay, conditions: Y fixed; at +2

In order of falling relative phosphorylation:
1. MKNK1, construct: Full length (D165-205) (from UniProt Q9BUB5)  2.32
2. NEK11, construct: Full length (from UniProt Q8NG66)  2.17
3. GRK2, construct: Full length (from UniProt P25098)  1.31
4. AURKB, construct: Full length (from UniProt Q96GD4)  1.22
5. TP53RK, construct: Full length (from UniProt Q96S44)  1.11
6. SGK3, construct: aa119-end (from UniProt Q96BR1)  1.01
7. NEK4, construct: Full length (from UniProt P51957)  0.986
8. GRK7, construct: Full length (from UniProt Q8WTQ7)  0.868

Same assay, conditions: Y fixed; at +3

In order of rising relative phosphorylation:
1. GRK7, construct: Full length (from UniProt Q8WTQ7)  0.515
2. SGK3, construct: aa119-end (from UniProt Q96BR1)  0.955
3. AURKB, construct: Full length (from UniProt Q96GD4)  1.05
4. TP53RK, construct: Full length (from UniProt Q96S44)  1.12
5. NEK11, construct: Full length (from UniProt Q8NG66)  1.21
6. GRK2, construct: Full length (from UniProt P25098)  1.22
7. MKNK1, construct: Full length (D165-205) (from UniProt Q9BUB5)  1.3
8. NEK4, construct: Full length (from UniProt P51957)  1.44

Same assay, conditions: Y fixed; at +4

In order of rising relative phosphorylation:
1. AURKB, construct: Full length (from UniProt Q96GD4)  0.734
2. MKNK1, construct: Full length (D165-205) (from UniProt Q9BUB5)  0.845
3. NEK4, construct: Full length (from UniProt P51957)  0.891
4. SGK3, construct: aa119-end (from UniProt Q96BR1)  0.903
5. GRK7, construct: Full length (from UniProt Q8WTQ7)  0.975
6. GRK2, construct: Full length (from UniProt P25098)  0.998
7. TP53RK, construct: Full length (from UniProt Q96S44)  1.07
8. NEK11, construct: Full length (from UniProt Q8NG66)  1.21

Same assay, conditions: Y fixed; at -1

In order of falling relative phosphorylation:
1. GRK2, construct: Full length (from UniProt P25098)  1.12
2. NEK4, construct: Full length (from UniProt P51957)  1.09
3. NEK11, construct: Full length (from UniProt Q8NG66)  1.08
4. SGK3, construct: aa119-end (from UniProt Q96BR1)  1.07
5. AURKB, construct: Full length (from UniProt Q96GD4)  1.04
6. TP53RK, construct: Full length (from UniProt Q96S44)  0.939
7. GRK7, construct: Full length (from UniProt Q8WTQ7)  0.717
8. MKNK1, construct: Full length (D165-205) (from UniProt Q9BUB5)  0.655

Same assay, conditions: Y fixed; at -2

In order of falling relative phosphorylation:
1. NEK11, construct: Full length (from UniProt Q8NG66)  1.06
2. TP53RK, construct: Full length (from UniProt Q96S44)  0.892
3. GRK2, construct: Full length (from UniProt P25098)  0.843
4. NEK4, construct: Full length (from UniProt P51957)  0.832
5. MKNK1, construct: Full length (D165-205) (from UniProt Q9BUB5)  0.725
